Like-named read-outs stand apart in the source and are kept apart here.
Columns and labels:
Type in all cases: in vivo
[1] = test system: Btk resistant Diamondback moth; experiment: Diet-surface overlay (DSO) bioassay; details: Table 45
Method: (§1) Diet-surface overlay bioassays are conducted with artificial diet mixes without antibiotics in 1.5 cm^2 cell bioassay trays(s). Artificial diets are commercially available from Southland Products Inc. Diets were prepared by dispersing 0.5 mL of molten diet to each 1.5 cm^2 cell. After solidification, 0.1 mL enzyme treatments were dispersed on top of diet in each cell and the tray was gently rocked in an orbital shaker to spread the liquid uniformly over the diet surface. Trays were placed under clean airflow until the surface of each cell was uniformly dried. One or two 16-cell sections were used per treatment (the number in larvae treated was 16 or 32).
(§2) One healthy first instar larva was placed into each treatment cell, each 16-cell section was covered with a re-sealable lid and incubated at 27° C. and light-dark period of 16:8 hrs. After 7 days, and according to the species, the number of individuals in the following developmental categories was recorded.
(§3) Diamondback moth (Plutella xylostella): Dead Larva (lack of movement), Larva Stage I (≤50% relative size), Larva Stage II (100% relative size, full size), Early Pupa (light green color), Late Pupa (light-dark brown color), and Adult.
(§4) Negative/untreated controls were treated with filtered water and positive controls were treated with lethal doses of Bacillus thuringiensis subsp. Kurstaki (Btk) spores at 1000 ppm.
However, both neutral proteases reduced the number of individuals reaching adult stage.

[2] = test system: Diamondback moth (Plutella xylostella); experiment: Diet-surface overlay (DSO) bioassay; details: Table 44, Lipase 0.14 U/mL diet
Method: as §1, §2, §3, §4

[3] = test system: corn; experiment: Field trial: PytH Esterase corn seed treatment, yield; details: for Yield: corn seed treatment, 0.5 fl oz/unit with Control Base Package
Source text: 0.5 fl oz/unit of PythH Esterase from recombinant Bacillus subtilis fermentation (SEQ ID NO: 255) was coated onto Hybrid corn seeds treated with Fludioxinil fungicide, ipconazole fungicide, peridium 1006 polymer, and Sensient Red (colorant). A control treatment without esterase enzyme was also created. The seed treated with esterase and control seed was planted in replicated trials distributed across 10 replicated plots with 4 replicates of 100 ft2 each at each site.

[4] = test system: SCN juveniles (SCN HG type 1.2.5.7, race 2)
Source text: To identify an additional esterase enzyme with efficacy in reducing SCN viability, we performed an in-vitro plate assay with a Pseudomonas sp. esterase (SEQ ID NO: 248) free enzyme direct treatment. The Pseudomonas sp. esterase (SEQ ID NO: 248) was produced by fermentation in Bacillus subtilis. The enzyme was cloned into a Bacillus expression plasmid p1797 with isopropyl β-d-1-thiogalactopyranoside (IPTG) inducible expression. The plasmid was transformed into B. subtilis, and the gene sequence was confirmed. The strain was grown in rich media until an optical density (OD) 0.2-0.5 was reached. Enzyme expression was then induced by addition of […] IPTG. Following the culture harvest, cells were removed by filtration through a […] filter. The culture filtrate containing the secreted enzyme was then collected and used for further applications.
(§5) SCN eggs were obtained from SCN HG type 1.2.5.7, race 2. Eggs were rinsed 4 times with sterile water. Eggs were transferred to a 6-well plate and resuspended in 5 mL of 3 mM ZnSO4. The plate was sealed with parafilm, covered with aluminum foil to prevent light from entering the plate, and placed in a plate growth chamber at 25° C. and 80% relative humidity. After 6-7 days of incubation, an estimate of hatched SCN juveniles was obtained from the well to determine the overall number of juveniles per 10 μL. The concentration of the hatchery solution was adjusted until it consisted of 20-30 juveniles per 10 μL.
Potato dextrose agar media containing chloramphenicol and chlortetracycline was prepared and added to sterile twenty-four-well cell culture plates (1 mL per well). The plates were divided according to the pre-determined N-value for each treatment (N=12-24). Each treatment being tested was added to the agar surface within each well at a rate of 40 μL per well. Without allowing the treatments to dry, 10 μL of the prepared nematode mixture was added to the agar surface within each well.
To quantify the treatments' effects on nematode viability, the nematodes were examined under a dissecting microscope at 20× magnification. Initial (T0) values for the number of live juveniles, number of dead juveniles and total number of juveniles were recorded immediately after preparation of each well. The plates were then wrapped in parafilm around the open edge, encased in aluminum foil, and placed in secondary containment. The secondary containment was placed in a plant growth chamber at 25° C. and 80% relative humidity. At approximately 24 hours post addition of juveniles, the plates were evaluated, and the number of live juveniles, dead juveniles and total number of juveniles were recorded (T24).
The difference in percent death at T0 vs T24 was calculated by subtracting the percent dead at TO [(#dead juveniles/total #juveniles)×100] from the percent dead at T24 [(#dead juveniles/#total juveniles originally present)×100]. […] If the ANOVA indicated a significant difference existed among treatments, Tukey's HSD post hoc test was used to perform a pairwise contrast between each set of treatments. Different letters denote statistically significant results at P<0.05.
as §5, with “from” for “from SCN”, “rinsed four” for “rinsed 4”, “and 80-90%” for “and 80%”, “from each” for “from the”
Potato dextrose agar media containing chloramphenicol and chlortetracycline was prepared and added to sterile twenty-four-well cell culture plates (1 mL per well). […]

[5] = test system: soybean cyst nematode (SCN, Heterodera glycines); experiment: Controlled environment soybean seed treatment trial: SCN cysts on roots; details: Table 16
[6] = test system: soybean; experiment: Field trial: Feruloyl Esterase soybean seed treatment, yield; details: for Yield: soybean seed treatment, 1.0 fl oz/unit with Control Base Package
Source text: 1 fl oz/unit of Feruloyl Esterase (SEQ ID NO:91) was coated onto soybean seeds treated with Fludioxinil fungicide, metalaxyl fungicide, thiamethoxam […], Seedwork 1037L polymer, and Sensient Red (colorant). A control treatment without esterase enzyme was also created. The seed treated with esterase and control seed was planted in replicated trials distributed across 5 replicated plots with 4 replicates of 30 ft^2 each at each site.

B1: Bacillus thuringiensis Lipase (Lip1) (protein, listed as Bacillus thuringiensis)
chain: MRLMRRCVALLIVFFIMAPMISTNVRAGVVKELKTGFPDQEVFTPGEWFLGQKPANYDENKPPILFVQGRNGNADSWYGKTVYHDINDMYDYALKAGYQTVFIQLYDAAGKGSASQWDNGKLLAQKLEEIYNHFGKKVNIVAHSKGGIDTQAALVGYGANRFVGNVITLATPHHGSNLADLSYSWWAGWLASILGQKDDGTYSLQMGEMAKFRSTIDNNPAAKLNRYYTVTGTSWGPVFSALSMGGLYLSSYGSNDGLVNECSAKLPYGTHLFTDSRFDHDNIRKGSAVFARIEPYLRTANVPVPALVASSTSSNENIEQLNTTSNQSILGGELPQNQWIEQTVAVDKKAEGIVSILTASSDVEVQMISPKGKVYTNKDSVITTGEGESFFGGATIRTFKFDKMDVGEWKVKMMTKQSKDAYLVVSDYKTGAPFVLQMPTKVKANKSEYKLKKSPVAPEMKGDLSITVRVVNKEGKLVSEFNELQNVNNNTFTGALKNIKQPGVYNVTMDIKGMNKEGKSYSRTIVKSVYVEK
modifications: Lipase (Lip1 H192)
[1]; Btk resistant strain, individuals of n = 32 after 7 days, U/mL diet: SEQ 76 1.4, Bc 3.8, Pf 5.2, water 3
  Dead Larva: 1
[1]; n = 32, doses as E86, water 0
  Adult: 0
  Larva Stage I: 9
  Larva Stage II: 12
[1]; n = 32, doses as E86, water 7
  Early Pupa: 10
[1]; n = 32, doses as E86, water 22
  Late Pupa: 0
[2]; individuals of n = 16 after 7 days, water 0
  Dead Larva: 0
[2]; n = 16, water 0
  Larva Stage I: 0
  Larva Stage II: 0
[2]; n = 16, water 3
  Early Pupa: 3
  Late Pupa: 13
[2]; n = 16, water 10
  Adult: 0

B2: Sphingobium wenxiniae (PytH) Esterase (protein, listed as Sphingobium wenxiniae)
chain: MTVTDIILIHGALNRGACYDAVVPLLEARGYRVHAPDLTGHTPGDGGHLSVVDMEHYTRPVADILARAEGQSILLGHSLGGASISWLAQHHPDKVAGLIYLTAVLTAPGITPETFVLPGEPNRGTPHALDLIQPVDEGRGLQADFSRLERLREVFMGDYPGEGMPPAEQFIQTQSTVPFGTPNPMEGRALEIPRLYIEALDDVVIPIAVQRQMQKEFPGPVAVVSLPASHAPYYSMPERLAEAIADFADAPAEYRQTATKAGPDRPAGADGGRADRADLP
[3]; control 205.5
  Yield: 208.8 Bu/A
[3]; control 13820.1
  Yield: 14042.0 Kg/ha
[3]; text to Table 57, 0.5 fl oz/unit
  yield versus base seed treatment package, in words: increased the yield

B3: Pseudomonas sp. Esterase (protein, listed as Pseudomonas sp.)
chain: MTEPLILQPVKPADACVIWLHGLGADRYDFLPVAEALQEILLSTRFVLPQAPTRPVTINGGYAMPSWYDIKAMSPARAIDRDELEASADRIIELIEEQRSSGIDASRIFLAGFSQGGAVVYHTAFLKWQGPLGGVLALSTYAPTFSDELELSASQQRIPVLSLHGQFDNVVQNSMGRTAYEYLKAHGVTVTWQEYPMEHEVLPEEIRDIGTWLSERLR
[4]; Table 17, 40 μL per well, water control 4%
  Difference in Percent Death of Nematodes for 0 to 24 Hours: 22%
[4]; Table 32, 40 μL of each treatment per well, water only 4%
  Difference in Percent Death of Nematodes for 0 to 24 Hours: 22%
[4]; text to Table 32
  difference in percent death during 24 hours: 22%
[5]; base control = 100%, change in brackets
  % Comparison to Control: 90% (−10%)
[5]; seed treatment, soybean 2830E3, concentrate = 4× volumetric concentration, base control 244.3
  Average cysts per g of root tissue: 220.2 cysts per g of root tissue

B4: Beauveria bassiana Feruloyl Esterase A2 (protein, listed as Beauveria bassiana)
chain: MLSLLGFLGFAALAAAAPVRDQAFIPRTLVNRSIYDKLALYAGYTQLSNTGICARPSVPGVLYQFVESKDTDTQVSIWKVDAYKEFVIAIPGTSSARDNETNFDFALVPYQADNVRCPSCRVHKGYQAAWRSVMKQVQGNLTNLLGIHPDYTVTLTGHSLGGGLVSIAFPTLRNGPYNVTQAYTYGQPRAGNGAFANYVDGISGASDKEAGIFYRVTHANDLIPKLPPGIFGYKHSRTEYWESKPSMDNAASTYRCYGQEPADCNRNATGIDSKVHVTYAGMNVTCNKS
modifications: Feruloyl Esterase A2
[6]; control 63.99
  Yield: 64.86 Bu/A
[6]; control 4303.4
  Yield: 4361.9 Kg/ha
[6]; text to Table 56, 1 fl oz/unit
  yield versus base seed treatment package, in words: increased the yield

From patent US20240324599A1, “PESTICIDAL ENZYMES FOR USE ON NEMATODES, INSECTS, AND MOLLUSKS” (priority 2023, published 2024)
